Measurements from PMC6374916.

Columns and labels:
[1] = biological target: K18 ΔK280 tau oligomers, dual-labeled (tau-AF488/AF647 coaggregates); assay: single-molecule TIRF microscopy colocalisation; dual-labeled tau oligomers produced (heparin, 45 min, 37 °C) in the presence of 2 uM Hsp70-AF405 (1:5 Hsp70/tau), diluted into 0.05 M ammonium acetate pH 7 to 50–200 pM tau, adsorbed onto a glass cover slide for 15 min
[2] = biological target: K18 ΔK280 tau-AF488 oligomers, large (10-mers and higher, apparent size); assay: FRET or BRET; smFRET saturation binding, pseudo-equilibrium, apparent constants; 100 nM tau-AF488 oligomers or 1200 nM fibrils (initial monomer concentration; donor) mixed with 0.5 nM to 10 uM Hsp70-AF647 (acceptor), 5 min on ice, then diluted to 200 pM tau and read on a confocal setup; oligomer size classes by fluorescence intensity
[3] = biological target: K18 ΔK280 tau-AF488 fibrils; assay: as above

stoichiometry N (Hsp70 molecules per tau monomer) [1]	Kd [2] [nM]	Kd [3] [nM]	Substance
0.5			Hsp70 labeled with Alexa Fluor 405 (from UniProt P0DMV8 1-641) (natural protein)
	170	19	Hsp70 labeled with Alexa Fluor 647 (from UniProt P0DMV8 1-641) (natural protein)
